From publication PMC10147665 come the findings set out here.

B1: endogenous PDPK1 [not stated (endogenous; cell line of this co-IP not named)] / endogenous PID1 [not stated (endogenous; cell line of this co-IP not named)] (parent)
chain 1: MFSLPLSLPLCEDTAFLPSKCCSSHKTIKQARTLIMIFLASGTHFQTMLKSKLNVLTLKKEPLPAVIFHEPEAIELCTTTPLMKTRTHSGCKVTYLGKVSTTGMQFLSGCTEKPVIELWKKHTLAREDVFPANALLEIRPFQVWLHHLDHKGEATVHMDTFQVARIAYCTADHNVSPNIFAWVYREINDDLSYQMDCHAVECESKLEAKKLAHAMMEAFRKTFHSMKSDGRIHSNSSSEEVSQELESDDG
chain 2: MARTTSQLYDAVPIQSSVVLCSCPSPSMVRTQTESSTPPGIPGGSRQGPAMDGTAAEPRPGAGSLQHAQPPPQPRKKRPEDFKFGKILGEGSFSTVVLARELATSREYAIKILEKRHIIKENKVPYVTRERDVMSRLDHPFFVKLYFTFQDDEKLYFGLSYAKNGELLKYIRKIGSFDETCTRFYTAEIVSALEYLHGKGIIHRDLKPENILLNEDMHIQITDFGTAKVLSPESKQARANSFVGTAQYVSPELLTEKSACKSSDLWALGCIIYQLVAGLPPFRAGNEYLIFQKIIKLEYDFPEKFFPKARDLVEKLLVLDATKRLGCEEMEGYGPLKAHPFFESVTWENLHQQTPPKLTAYLPAMSEDDEDCYGNYDNLLSQFGCMQVSSSSSSHSLSASDTGLPQRSGSNIEQYIHDLDSNSFELDLQFSEDEKRLLLEKQAGGNPWHQFVENNLILKMGPVDKRKGLFARRRQLLLTEGPHLYYVDPVNKVLKGEIPWSQELRPEAKNFKTFFVHTPNRTYYLMDPSGNAHKWCRKIQEVWRQRYQSHPDAAVQ

One assay covers variants of B1. Nature of the assay: co-immunoprecipitation (IP: HA, IB: PID1), band densitometry. The following applies: with endogenous PID1 [not stated (endogenous; cell line of this co-IP not named)]; IGF-1 + (insulin -); read off a plot.
Take chain 2 Y9F Y373F Y376F: the response was determined as 0.06.

The same assay, now with this note: with endogenous PID1 [not stated (endogenous; cell line of this co-IP not named)]; insulin + (IGF-1 -); read off a plot.
chain 2 Y9F Y373F Y376F: the response was found to be 0.06.

Still in this assay, the particulars now being: with endogenous PID1 [not stated (endogenous; cell line of this co-IP not named)]; no growth factor (IGF-1 -, insulin -); read off a plot.
Consider chain 2 Y9F Y373F Y376F, for which the response came out at 0.07.
